B1: z1C1 promoter WT probe (dsDNA)
DNA 1: TCTACTAAGCTTGTTCAACCACGAGAAGAATATTAG
DNA 2: CTAATATTCTTCTCGTGGTTGAACAAGCTTAGTAGA
B2: z1D2 promoter WT probe (dsDNA)
DNA 1: GTTGAAATTGATTGATATCCACAAATTTTGTTAA
DNA 2: TTAACAAAATTTGTGGATATCAATCAATTTCAAC
B3: Bt1 promoter WT probe (dsDNA)
DNA 1: CACGCGCCGCCATTTCTGTTGCGAATGAGTCCATGG
DNA 2: CCATGGACTCATTCGCAACAGAAATGGCGGCGCGTG
B4: Ae1 promoter WT probe (dsDNA)
DNA 1: GAGAATGAAAGCGAACTGTTGCTCACGGACTCTAAG
DNA 2: CTTAGAGTCCGTGAGCAACAGTTCGCTTTCATTCTC

biological target: ZmMYB127 (Zea mays (inbred B73), UniProt A0A804N6V3 1-263); assay: EMSA; EMSA with LightShift Chemiluminescent EMSA kit protocol, 25 °C, 30 min, native PAGE; buffer, salt and pH not stated; details: protein: recombinant; tags: GST (N-terminal, pGEX-6T); label: biotin (end); blunt
Sequence (A0A804N6V3 entry or part of it): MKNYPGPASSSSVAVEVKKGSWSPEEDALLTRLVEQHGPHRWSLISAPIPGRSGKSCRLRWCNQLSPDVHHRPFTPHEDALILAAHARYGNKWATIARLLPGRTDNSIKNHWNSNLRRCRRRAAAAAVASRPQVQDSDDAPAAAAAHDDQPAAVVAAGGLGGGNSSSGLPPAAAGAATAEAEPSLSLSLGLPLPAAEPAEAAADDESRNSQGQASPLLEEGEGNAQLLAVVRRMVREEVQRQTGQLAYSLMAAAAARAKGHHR

Binding result, binds:
B1
B2
B3
B4

Reference: article PMC12906810, “ZmMYB127 Modulates Maize Kernel Texture and Size by Integrating the Synthesis of Starch, Zein Proteins and Auxin”
